Experimental findings from the supplement of paper PMC10126150 are described below.

The data set deals with ATP. In words: switch fluorescence ratio, 500 uM ATP over buffer (Cy3 cluster intensity, sum of 5 cycles each) (fold (ratio)); higher = stronger signal-on switching upon ATP binding; sequences stand for … in TCGTCGGCAGCGTCAGATGTGTATAAGAGACAGTTTTTTTTTTTTTTTTTTTTTTTTT…TC. To be noted: aptamer strand: ATP DNA aptamer (quencher-CACCTGGGGGAGTATTGCGGAGGAAGG + anchor), 100 nM annealed; ATP concentration: 500 uM. In short, it runs like this:
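Clusters with intensities outside 100-1000 RFU were excluded. The remaining Cy3-labelled switching-strand clusters on a modified Illumina MiSeq flow-cell had been annealed to 100 nM quencher-labelled ATP aptamer and imaged in selection buffer, then after 15 min with 500 uM ATP at 22 °C, for five cycles separated by NaOH stripping and re-annealing. The fluorescence ratio, averaged per switch-domain sequence, is each cluster's summed target-cycle Cy3 intensity over its summed buffer-cycle Cy3 intensity.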

± gives the standard deviation of the averaged measurements.
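Note: ATP exposure 15 min at 22 °C before imaging.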

Consider AAGGTAGGGC, for which the switch fluorescence ratio is 1.014 ± 0.008.

Turning to AAGGTATATA, the switch fluorescence ratio was determined as 0.9938 ± 0.0031. As for AAGGTATCTG, the switch fluorescence ratio turned out to be 1.03 ± 0.03. For AAGGTATGC, the switch fluorescence ratio came to 1.01 ± 0.048. As to AAGGTATGTT, the switch fluorescence ratio came to 0.981 ± 0.021.

With AAGGTCAAGG, the switch fluorescence ratio came out at 1.015 ± 0.0056. As to AAGGTCATTT, the switch fluorescence ratio turned out to be 1 ± 0.034. Take AAGGTCCAGT: the switch fluorescence ratio stood at 1.13 ± 0.23. On to AAGGTCCGCT, for which the switch fluorescence ratio was found to be 1.05 ± 0.02.

As to AAGGTCTATT, the switch fluorescence ratio was 0.998 ± 0.06. The same measure for AAGGTCTGAG: 1.02 ± 0.043. In the case of AAGGTCTGGT, the switch fluorescence ratio was found to be 0.985 ± 0.038.

AAGGTGAGGG: the switch fluorescence ratio was found to be 1.03 ± 0.02. The same measure for AAGGTGGGGG: 0.991 ± 0.033; for AAGGTGTGGG: 1.01 ± 0.015. In the case of AAGGTGTTTG it was 1.05 ± 0.04; in that of AAGGTTAAGG, 0.993 ± 0.025.

With AAGGTTAATG, the switch fluorescence ratio stood at 1 ± 0.016. In the case of AAGGTTAGGG it was 0.984 ± 0.029; in that of AAGGTTATCT, 1.005 ± 0.0068; in that of AAGGTTCGAT, 0.984 ± 0.049.

Regarding AAGGTTGCGG, the switch fluorescence ratio was 1 ± 0.037.

AAGGTTTGTA: the switch fluorescence ratio worked out at 0.9899 ± 0.0068.

For the sequence AAGGTTTTTA, the switch fluorescence ratio is 0.993 ± 0.029. Turning to AAGTAACGGT, the switch fluorescence ratio was 1.02 ± 0.047.

Turning to AAGTAAGTAG, the switch fluorescence ratio is 1.01 ± 0.021. Turning to AAGTACTATC, the switch fluorescence ratio is 1.26 ± 0.025.

Consider AAGTACTTGA, for which the switch fluorescence ratio amounted to 1.12 ± 0.052.

In the case of AAGTAGATTG, the switch fluorescence ratio was determined as 1.003 ± 0.0081. Turning to AAGTAGGCGC, the switch fluorescence ratio is 0.9958 ± 0.008. In the case of AAGTATAGC it was 1.02 ± 0.044; in that of AAGTCATTTT, 1.026 ± 0.0017; in that of AAGTCCAATG, 1.01 ± 0.023. In the case of AAGTCCGATA it was 0.9941 ± 0.0038. Turning to AAGTCGTTCG, the switch fluorescence ratio worked out at 0.989 ± 0.016. With AAGTCTCTCC, the switch fluorescence ratio worked out at 1.06 ± 0.018. The same measure for AAGTCTGCAG: 1.002 ± 0.01; for AAGTCTGTTA: 0.994 ± 0.032; for AAGTCTGTTT: 1.03 ± 0.028. In the case of AAGTGAATGG, the switch fluorescence ratio worked out at 0.9986 ± 0.0032.

AAGTGACCTT: the switch fluorescence ratio was found to be 1.135 ± 0.0039. Consider AAGTGAGGGG, for which the switch fluorescence ratio amounted to 0.998 ± 0.028. In the case of AAGTGCGATC it was 1.04 ± 0.019. The same measure for AAGTGGCTTT: 1 ± 0.014; for AAGTGGGCGT: 1.01 ± 0.046.

Regarding AAGTGGGGA, the switch fluorescence ratio was 0.986 ± 0.018. The same measure for AAGTGGGGCT: 1.005 ± 0.0094; for AAGTGGGGGA: 1.02 ± 0.015.

For the sequence AAGTGGGGTA, the switch fluorescence ratio turned out to be 1.03 ± 0.022.

Consider AAGTGGGTGT, for which the switch fluorescence ratio was determined as 0.99 ± 0.059. Take AAGTGGGTTT: the switch fluorescence ratio turned out to be 1.02 ± 0.037. For AAGTGTCTTG, the switch fluorescence ratio came to 0.999 ± 0.05.

In the case of AAGTGTTAAT, the switch fluorescence ratio came out at 0.9955 ± 0.0031. In the case of AAGTTACGT, the switch fluorescence ratio was determined as 1.06 ± 0.025.

In the case of AAGTTAGACA, the switch fluorescence ratio is 1.021 ± 0.0087. The same measure for AAGTTAGTTA: 1.03 ± 0.02. The same measure for AAGTTCAGTA: 0.9673 ± 0.0084; for AAGTTCAGTG: 1.014 ± 0.0068.

For the sequence AAGTTCTGGA, the switch fluorescence ratio came to 0.976 ± 0.07. In the case of AAGTTGGGGC it was 0.989 ± 0.032; in that of AAGTTGGTCT, 1.02 ± 0.018; in that of AAGTTGGTTC, 0.98 ± 0.052. In the case of AAGTTGTATG, the switch fluorescence ratio was 0.9787 ± 0.0025.

Regarding AAGTTGTTAT, the switch fluorescence ratio came to 0.986 ± 0.045. Regarding AAGTTTAGCA, the switch fluorescence ratio was determined as 1.01 ± 0.021. The same measure for AAGTTTATTT: 0.973 ± 0.051; for AAGTTTCGAG: 0.983 ± 0.017.

Regarding AAGTTTCGGG, the switch fluorescence ratio was 0.987 ± 0.027. As for AAGTTTTCAG, the switch fluorescence ratio turned out to be 0.97 ± 0.021.

With AAGTTTTGGT, the switch fluorescence ratio was 0.964 ± 0.019.

Consider AATAAAAAGG, for which the switch fluorescence ratio stood at 0.991 ± 0.019. In the case of AATAAAAAGT it was 0.982 ± 0.023. The same measure for AATAAAAGAT: 1 ± 0.017; for AATAAAATT: 1.03 ± 0.076; for AATAAACGGG: 1.03 ± 0.015. AATAAAGAGT: the switch fluorescence ratio was 0.974 ± 0.015. In the case of AATAAAGGAT it was 1 ± 0.017. In the case of AATAACAAAA it was 0.995 ± 0.037.
